Test results from US20250282868A1 (ITEOS BELGIUM, published 2025).

Columns and labels:
human TREM2 [1] = biological target: T1, human TREM2 (human, UniProt Q9NZC2 19-230); test: flow cytometry, competition with LDL-Alexafluor-488 on CHO cells overexpressing human TREM2/DAP12; positive control
T1 construct: on THP-1 WT cells and M2a-like macrophages (endogenous) and on CHO or HEK293T cells overexpressing human TREM2 with DAP12; also called hTREM2
T1 sequence: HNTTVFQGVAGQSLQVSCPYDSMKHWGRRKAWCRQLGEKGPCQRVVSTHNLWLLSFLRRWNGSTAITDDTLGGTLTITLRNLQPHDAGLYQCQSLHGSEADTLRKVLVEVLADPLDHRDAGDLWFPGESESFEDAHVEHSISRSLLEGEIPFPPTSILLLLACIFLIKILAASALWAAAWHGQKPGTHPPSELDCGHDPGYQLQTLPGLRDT
Protocol: (§1) Exemplary anti-TREM2 antibodies were tested in order to characterize their ability to enter in competition with TREM2 ligand, LDL, on CHO overexpressing human TREM2/DAP12. Antibodies (dose response curves from 66.65 nM to 0.07 nM) were incubated for 30 min with cells in a soluble fashion, followed by an incubation with LDL coupled with Alexafluor-488 (at 1 μg/mL final) for 30 min. Finally, after 2 washes, cells were acquired on flow cytometer. The median MFI of Alexafluor-488 was used to plot the graphs. Benchmark antibody MOR044746 was used as positive control.

human TREM2 [2] = biological target: T1, human TREM2; test: flow cytometry, THP-1 WT cells, 10 ug/ml
human TREM2 [3] = biological target: T1, human TREM2; test: flow cytometry, competition with LDL-Alexafluor-488 on CHO cells overexpressing human TREM2/DAP12; only 1 value generated
Protocol: as §1

human TREM2 [4] = biological target: T1, human TREM2; test: flow cytometry, M2a-like macrophages, dose-response
human TREM2 [5] = biological target: T1, human TREM2; test: cell-based or functional assay
human TREM2 [6] = biological target: T1, human TREM2; test: flow cytometry, THP-1 WT vs THP-1 TREM2 KO cells, 10 ug/ml
mouse TREM2 [7] = biological target: T2, mouse TREM2 (mouse, UniProt Q99NH8 19-227); test: MFI on CT26 cells over-expressing mouse TREM2 and DAP12 vs CT26 empty vector
T2 construct: whole, on cells
T2 sequence (looked up): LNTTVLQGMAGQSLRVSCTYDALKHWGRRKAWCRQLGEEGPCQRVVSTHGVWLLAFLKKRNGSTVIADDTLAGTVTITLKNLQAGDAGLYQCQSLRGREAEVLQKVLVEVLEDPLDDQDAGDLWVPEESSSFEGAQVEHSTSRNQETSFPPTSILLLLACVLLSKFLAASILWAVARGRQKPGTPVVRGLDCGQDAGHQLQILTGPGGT

cynomolgus TREM2 [8] = biological target: T3, cynomolgus TREM2 (cynomolgus, UniProt A0A2K5UY34 49-260); test: MFI on CHO cells over-expressing cynoTREM2-DAP12
T3 construct: also called cynoTREM2; cTREM2
T3 sequence: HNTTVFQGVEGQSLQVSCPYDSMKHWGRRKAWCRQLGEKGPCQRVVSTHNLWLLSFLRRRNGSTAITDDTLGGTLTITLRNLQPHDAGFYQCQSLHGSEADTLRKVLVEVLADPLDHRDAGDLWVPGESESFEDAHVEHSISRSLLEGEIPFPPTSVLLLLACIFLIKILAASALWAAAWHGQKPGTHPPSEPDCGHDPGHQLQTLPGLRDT
Protocol: (§2) Cross-reactivity of anti-TREM2 antibodies to cynomolgus TREM2 (cynoTREM2) was assessed using CHO over-expressing cynoTREM2-DAP12 (Table 22). Benchmark antibodies, AB52 and PN-37012, were examined for comparison.

mouse TREM2 [9] = biological target: T2, mouse TREM2; test: MFI on CT26 cells over-expressing mouse TREM2 and DAP12
cynomolgus TREM2 [10] = biological target: T3, cynomolgus TREM2; test: MFI on CHO cells over-expressing cynoTREM2-DAP12 vs CHO empty vector
Protocol: as §2

human TREM2 [11] = biological target: T1, human TREM2; test: cell-based or functional assay; remark: listed apart in the source
human TREM2 [12] = biological target: T1, human TREM2; test: flow cytometry, M2a-like macrophages

| Binder | IC50 (human TREM2 [1]) | Fold over isotype control THP1 WT (human TREM2 [2]) | IC50 (human TREM2 [3]) | Kd (human TREM2 [4]) | Fold over isotype control at 66 nM (human TREM2 [5]) | MFI Fold change (THP-1 WT over THP-1 TREM2 KO) (human TREM2 [6]) | MFI Fold change (CT26-TREM2 over CT26-EV) (mouse TREM2 [7]) | Binding to CHO-cTREM2 MFI (cynomolgus TREM2 [8]) | Binding to CT26-TREM2 MFI (mouse TREM2 [9]) | MFI Fold change (CHO-cTREM2 over CHO-EV) (cynomolgus TREM2 [10]) | Stabilization ratio (Mean of 2 replicates) (human TREM2 [11]) | Fold over isotype (human TREM2 [12]) |
| --- | --- | --- | --- | --- | --- | --- | --- | --- | --- | --- | --- | --- |
| MOR044746 (antibody, V domains shown, benchmark anti-TREM2 antibody from WO2020079580) VH: QVQLQQSGPGLVKPSQTLSLTCAISGDSVSSSSAAWNWIRQSPSRGLEWLGHIGYRSKWYNEYAVSVKSRITINPDTSKNQFSLQLNSVTPEDTAVYYCARGMYGSVPYKEGYYFDIWGQGTLVTVSS VL: DIQMTQSPSSLSASVGDRVTITCRASQGISSDLNWYQQKPGKAPKLLIYAASNLQSGVPSRFSGSGSGTDFTLTISSLQPEDFATYYCQQYTDESMTFGQGTKVEIK | 395 pM |  |  |  |  |  |  |  |  |  |  |  |
| EOS006175 (antibody, V domains shown) VH: QVQLQESGPGLVKPSGTLSLTCAVSGGSISSSNWWSWVRQPPGKGLEWIGEIYHSGSTNYNPSLKSRVTISVDKSKNQFSLKLSSVTAADTAVYYCARDTKYWGGMDVWGQGTTVTVSS VL: DIQMTQSPSSLSASVGDRVTITCQASQDISNYLNWYQQKPGKAPKLLIYDASNLATGVPSRFSGSGSGTDFTFTISSLQPEDIATYYCQQYVEAPTFGGGTKVEIK |  | 5.5 fold | 280 pM | 1060 pM | 0.757 fold | 5.8 fold | 3.9 fold | 10200 MFI | 1390 MFI | 233 fold | 0.39 ratio | 5.8 fold |
